{"source": "paper PMC6839023", "about": "“Structure of the UspA1 protein fragment from Moraxella catarrhalis responsible for C3d binding” (Journal of Structural Biology, 2019)", "molecular_target": "the molecule itself", "assay": "crystal structure; UspA1 299-452 (2.4 mg/ml) mixed 1:3 with C3d (10.7 mg/ml); 1,6-hexanediol, 0.1 M Tris-HCl pH 8.5, 20 mM MgCl2; 2.5 Å; the crystals held only UspA1 299-452", "data": [{"protein": "UspA1^299–452 (ubiquitous surface protein A1 fragment, residues 299–452) (domain or fragment, fluorescently labelled with the Monolith NT His-Tag Labelling Kit RED-tris-NTA (thermophoresis only), UspA1 of Moraxella catarrhalis strain ATCC 25238 (BC5), GenBank AAD43465, residues 299-452: part of the long neck (299-336) and of the stalk (337-452); Cloned NdeI/HindIII into pET22b(+); No thrombin cleavage is described; Trimer in the crystal; also called UspA1 fragment (amino acids 299–452); UspA^299–452; source: E. coli BL21(DE3), purified (NiNTA, Superdex 200)) not shown", "values": [{"measurement": "stoichiometry N", "result": 3}]}]}
